Data from patent US20150203577A1 (Chugai, published 2015).

T1: mouse FcγRII extracellular domain, C-terminally His-tagged (mouse, UniProt P08101 30-210)
T1 construct: the whole entry is named; also called mFcγRII; mFcgRII
T1 sequence: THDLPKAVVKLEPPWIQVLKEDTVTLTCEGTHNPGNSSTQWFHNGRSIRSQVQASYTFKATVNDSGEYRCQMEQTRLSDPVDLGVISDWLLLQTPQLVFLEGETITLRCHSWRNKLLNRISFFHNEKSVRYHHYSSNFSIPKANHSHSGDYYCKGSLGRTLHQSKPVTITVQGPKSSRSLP

T2: mouse FcγRIII extracellular domain, C-terminally His-tagged (mouse, UniProt P08508 31-215)
T2 construct: the whole entry is named; also called mFcγRIII; mFcgRIII
T2 chain: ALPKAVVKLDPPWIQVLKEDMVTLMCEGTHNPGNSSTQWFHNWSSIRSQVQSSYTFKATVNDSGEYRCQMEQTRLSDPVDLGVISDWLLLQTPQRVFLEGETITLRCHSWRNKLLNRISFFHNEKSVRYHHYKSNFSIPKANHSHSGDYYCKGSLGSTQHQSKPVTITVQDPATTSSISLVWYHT

T3: mouse FcγRIII (mouse, UniProt P08508 31-215)
T3 construct: Extracellular domain with C-terminal His tag, made in FreeStyle 293 cells; also called mFcγRIII; mFcgRIII
T3 chain: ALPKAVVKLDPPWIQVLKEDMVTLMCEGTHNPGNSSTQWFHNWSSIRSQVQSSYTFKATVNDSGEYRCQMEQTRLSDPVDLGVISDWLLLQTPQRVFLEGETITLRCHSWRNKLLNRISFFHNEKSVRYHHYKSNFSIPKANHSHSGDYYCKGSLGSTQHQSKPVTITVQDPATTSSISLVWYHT

T4: mouse FcγRII (mouse, UniProt P08101 30-210)
T4 construct: Extracellular domain with C-terminal His tag, made in FreeStyle 293 cells; also called mFcγRII; mFcgRII
T4 sequence: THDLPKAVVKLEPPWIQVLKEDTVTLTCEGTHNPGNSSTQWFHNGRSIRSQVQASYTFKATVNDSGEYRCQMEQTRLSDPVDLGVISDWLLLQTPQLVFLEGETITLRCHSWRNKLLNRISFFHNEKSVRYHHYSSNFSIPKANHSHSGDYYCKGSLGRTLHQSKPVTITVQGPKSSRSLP


Legend:
[1] = molecular target: T1, mouse FcγRII extracellular domain, …; assay: SPR Biacore T200, KD ratio, template MB515
Source text: (§1) The antibody H chain variable region used was the variable region H237 (SEQ ID NO: 1) of the H chain VH3-IgG1 of the anti-IL-6 receptor antibody Fv4-IgG1 described in WO2009/125825. The antibody L chain commonly used was the L chain MRAL-k0 (SEQ ID NO: 2) of the anti-IL-6 receptor antibody tocilizumab. H237-MB476/MRAL-k0 and H237-MB515/MRAL-k0 were used as templates to introduce new alterations. These variants were expressed and purified by the method of Reference Example 1 and evaluated for their binding to mFcγRII and mFcγRIII by the method of Reference Example 2 using Biacore T200.
(§2) Each altered antibody was analyzed for its interaction with each Fcγ receptor prepared above using Biacore T100 (GE Healthcare Japan Corp.), Biacore T200 (GE Healthcare Japan Corp.), Biacore A100, or Biacore 4000. The running buffer used was HBS-EP+ (GE Healthcare Japan Corp.). The assay temperature was set to 25° C. The sensor chips used were chips prepared by immobilizing Protein L (ACTIGEN or BioVision) onto Series S Sensor Chip CM5 (GE Healthcare Japan Corp.) or Series S Sensor Chip CM4 (GE Healthcare Japan Corp.) by the amine coupling method.
(§3) In order to calculate the KD value of each altered antibody for FcγR, kinetic analysis was conducted according to the following method: first, the antibody of interest was captured onto any of these chips and allowed to interact with mFcγR diluted with a running buffer. For the obtained sensorgram, the assay results were globally fit into the 1:1 Langmuir binding model using Biacore Evaluation Software to calculate an association rate constant ka (L/mol/s) and a dissociation rate constant kd (1/s). From these values, the dissociation constant KD (mol/L) was calculated.

[2] = molecular target: T2, mouse FcγRIII extracellular domain, …; assay: SPR Biacore T200, KD ratio, template MB515
Source text: as §1, §2, §3

[3] = molecular target: T1, mouse FcγRII extracellular domain, …; assay: SPR Biacore T200, KD ratio
[4] = molecular target: T2, mouse FcγRIII extracellular domain, …; assay: SPR Biacore T200, KD ratio
mouse FcγRIII [5] = molecular target: T3, mouse FcγRIII; assay: SPR (Biacore), antibody captured on Protein L
mouse FcγRII [6] = molecular target: T4, mouse FcγRII; assay: SPR (Biacore), antibody captured on Protein L
mouse FcγRIII [7] = molecular target: T3, mouse FcγRIII; assay: SPR (Biacore), KD of H237-mIgG1/MRAL-k0 / KD of variant
Experimental: as §2, §3

mouse FcγRII [8] = molecular target: T4, mouse FcγRII; assay: as above
Experimental: as §2, §3

Row | Binder | relative mFcγRII-binding activity (template = 1) [1] [fold] | relative mFcγRIII-binding activity (template = 1) [2] [fold] | relative mFcγRII-binding activity (mIgG1 = 1) [3] [fold] | relative mFcγRII-binding activity (template H237-MB515/MRAL-k0 = 1) [3] [fold] | relative mFcγRIII-binding activity (mIgG1 = 1) [4] [fold] | relative mFcγRII-binding activity (H237-mIgG1/MRAL-k0 = 1) [3] [fold] | Kd (mouse FcγRIII [5]) [µM] | Kd (mouse FcγRII [6]) [µM] | relative mFcγRIII-binding activity (mIgG1 = 1) (mouse FcγRIII [7]) [fold] | relative mFcγRII-binding activity (mIgG1 = 1) (mouse FcγRII [8]) [fold]
1 | H237-MB544/MRAL-k0 (antibody, mouse IgG1, kappa, copies: 2 + 2) heavy: QVQLQESGPGLVKPSETLSLTCAVSGHSISHDHAWSWVRQPPGEGLEWIGFISYSGITNYNPSLQGRVTISRDNSKNTLYLQMNSLRAEDTAVYYCARSLARTTAMDYWGEGTLVTVSSAKTTPPSVYPLAPGSAAQTNSMVTLGCLVKGYFPEPVTVTWNSGSLSSGVHTFPAVLQSDLYTLSSSVTVPSSTWPSETVTCNVAHPASSTKVDKKIVPRDCGCKPCICEPNEVEMVFIFPPKPKDVLTITLTPKVTCVVVDISKDDPEVQFSWFVDDVEVHTAQTQPREEQFNSTFRSVSELPIMHQDWLNGKEFKCRVNSDAFPAPIERTISKTKGRPKAPQVYTIPPPKEQMAKDKVSLTCMITDFFPEDITVEWQWNGQPAENYKNTQPIMDTDGSYFVYSKLNVQKSNWEAGNTFTCSVLHEGLHNHHTEKSLSHSPGK light: not shown | 2.01 | 2.45 | 276 | ≥ 1.4 | 3.2 |  |  |  |  | 
2 | H237-MB526/MRAL-k0 (antibody, mouse IgG1, kappa, copies: 2 + 2) heavy: QVQLQESGPGLVKPSETLSLTCAVSGHSISHDHAWSWVRQPPGEGLEWIGFISYSGITNYNPSLQGRVTISRDNSKNTLYLQMNSLRAEDTAVYYCARSLARTTAMDYWGEGTLVTVSSAKTTPPSVYPLAPGSAAQTNSMVTLGCLVKGYFPEPVTVTWNSGSLSSGVHTFPAVLQSDLYTLSSSVTVPSSTWPSETVTCNVAHPASSTKVDKKIVPRDCGCKPCICQPNEVEEVFIFPPKPKDVLTITLTPKVTCVVVDISKDDPEVQFSWFVDDVEVHTAQTQPREEQFNLTFRSVSELPIMHQDWLNGKEFKCRVNSAAFPAPIEKTISKTKGRPKAPQVYTIPPPKEQMAKDKVSLTCMITDFFPEDITVEWQWNGQPAENYKNTQPIMDTDGSYFVYSKLNVQKSNWEAGNTFTCSVLHEGLHNHHTEKSLSHSPGK light: not shown |  |  |  |  |  |  | 0.033 | 0.000904 | 8.5 | 232
3 | H237-MB546/MRAL-k0 (antibody, mouse IgG1, kappa, copies: 2 + 2) heavy: QVQLQESGPGLVKPSETLSLTCAVSGHSISHDHAWSWVRQPPGEGLEWIGFISYSGITNYNPSLQGRVTISRDNSKNTLYLQMNSLRAEDTAVYYCARSLARTTAMDYWGEGTLVTVSSAKTTPPSVYPLAPGSAAQTNSMVTLGCLVKGYFPEPVTVTWNSGSLSSGVHTFPAVLQSDLYTLSSSVTVPSSTWPSETVTCNVAHPASSTKVDKKIVPRDCGCKPCICEPNEVEMVFIFPPKPKDVLTITLTPKVTCVVVDISKDDPEVQFSWFVDDVEVHTAQTQPREEQFNLTFRSVSELPIMHQDWLNGKEFKCRVDSAAFPAPIERTISKTKGRPKAPQVYTIPPPKEQMAKDKVSLTCMITDFFPEDITVEWQWNGQPAENYKNTQPIMDTDGSYFVYSKLNVQKSNWEAGNTFTCSVLHEGLHNHHTEKSLSHSPGK light: not shown | 1.15 | 4.28 | 158 |  | 5.6 |  |  |  |  | 
4 | H237-MB545/MRAL-k0 (antibody, mouse IgG1, kappa, copies: 2 + 2) heavy: QVQLQESGPGLVKPSETLSLTCAVSGHSISHDHAWSWVRQPPGEGLEWIGFISYSGITNYNPSLQGRVTISRDNSKNTLYLQMNSLRAEDTAVYYCARSLARTTAMDYWGEGTLVTVSSAKTTPPSVYPLAPGSAAQTNSMVTLGCLVKGYFPEPVTVTWNSGSLSSGVHTFPAVLQSDLYTLSSSVTVPSSTWPSETVTCNVAHPASSTKVDKKIVPRDCGCKPCICEPNEVEMVFIFPPKPKDVLTITLTPKVTCVVVDISKDDPEVQFSWFVDDVEVHTAQTQPREEQFNLTFRSVSELPIMHQDWLNGKEFKCRVDSDAFPAPIEKTISKTKGRPKAPQVYTIPPPKEQMAKDKVSLTCMITDFFPEDITVEWQWNGQPAENYKNTQPIMDTDGSYFVYSKLNVQKSNWEAGNTFTCSVLHEGLHNHHTEKSLSHSPGK light: not shown | 1.19 | 2.02 | 163 |  | 2.7 |  |  |  |  | 

Other lines, results leading:

Row | relative mFcγRII-binding activity (template = 1) [1] [fold] | relative mFcγRIII-binding activity (template = 1) [2] [fold] | relative mFcγRII-binding activity (mIgG1 = 1) [3] [fold] | relative mFcγRII-binding activity (template H237-MB515/MRAL-k0 = 1) [3] [fold] | relative mFcγRIII-binding activity (mIgG1 = 1) [4] [fold] | relative mFcγRII-binding activity (H237-mIgG1/MRAL-k0 = 1) [3] [fold] | Kd (mouse FcγRIII [5]) [µM] | Kd (mouse FcγRII [6]) [µM] | relative mFcγRIII-binding activity (mIgG1 = 1) (mouse FcγRIII [7]) [fold] | relative mFcγRII-binding activity (mIgG1 = 1) (mouse FcγRII [8]) [fold] | Binder
5 | 2.6 | 2.99 | 357 | ≥ 1.4 | 3.9 | ≥ 350 |  |  |  |  | H237-MB548/MRAL-k0 (antibody, mouse IgG1, kappa, copies: 2 + 2) heavy: QVQLQESGPGLVKPSETLSLTCAVSGHSISHDHAWSWVRQPPGEGLEWIGFISYSGITNYNPSLQGRVTISRDNSKNTLYLQMNSLRAEDTAVYYCARSLARTTAMDYWGEGTLVTVSSAKTTPPSVYPLAPGSAAQTNSMVTLGCLVKGYFPEPVTVTWNSGSLSSGVHTFPAVLQSDLYTLSSSVTVPSSTWPSETVTCNVAHPASSTKVDKKIVPRDCGCKPCICEPNEVEMVFIFPPKPKDVLTITLTPKVTCVVVDISKDDPEVQFSWFVDDVEVHTAQTQPREEQFNSTFRSVSELPIMHQDWLNGKEFKCRVDSDAFPAPIERTISKTKGRPKAPQVYTIPPPKEQMAKDKVSLTCMITDFFPEDITVEWQWNGQPAENYKNTQPIMDTDGSYFVYSKLNVQKSNWEAGNTFTCSVLHEGLHNHHTEKSLSHSPGK light: not shown
6 | 1.24 | 3.43 | 170 |  | 4.5 |  |  |  |  |  | H237-MB547/MRAL-k0 (antibody, mouse IgG1, kappa, copies: 2 + 2) heavy: QVQLQESGPGLVKPSETLSLTCAVSGHSISHDHAWSWVRQPPGEGLEWIGFISYSGITNYNPSLQGRVTISRDNSKNTLYLQMNSLRAEDTAVYYCARSLARTTAMDYWGEGTLVTVSSAKTTPPSVYPLAPGSAAQTNSMVTLGCLVKGYFPEPVTVTWNSGSLSSGVHTFPAVLQSDLYTLSSSVTVPSSTWPSETVTCNVAHPASSTKVDKKIVPRDCGCKPCICEPNEVEMVFIFPPKPKDVLTITLTPKVTCVVVDISKDDPEVQFSWFVDDVEVHTAQTQPREEQFNLTFRSVSELPIMHQDWLNGKEFKCRVNSDAFPAPIERTISKTKGRPKAPQVYTIPPPKEQMAKDKVSLTCMITDFFPEDITVEWQWNGQPAENYKNTQPIMDTDGSYFVYSKLNVQKSNWEAGNTFTCSVLHEGLHNHHTEKSLSHSPGK light: not shown
7 | 1.53 | 4.11 | 210 |  | 5.4 |  |  |  |  |  | H237-MB549/MRAL-k0 (antibody, mouse IgG1, kappa, copies: 2 + 2) heavy: QVQLQESGPGLVKPSETLSLTCAVSGHSISHDHAWSWVRQPPGEGLEWIGFISYSGITNYNPSLQGRVTISRDNSKNTLYLQMNSLRAEDTAVYYCARSLARTTAMDYWGEGTLVTVSSAKTTPPSVYPLAPGSAAQTNSMVTLGCLVKGYFPEPVTVTWNSGSLSSGVHTFPAVLQSDLYTLSSSVTVPSSTWPSETVTCNVAHPASSTKVDKKIVPRDCGCKPCICEPNEVEMVFIFPPKPKDVLTITLTPKVTCVVVDISKDDPEVQFSWFVDDVEVHTAQTQPREEQFNLTFRSVSELPIMHQDWLNGKEFKCRVDSDAFPAPIERTISKTKGRPKAPQVYTIPPPKEQMAKDKVSLTCMITDFFPEDITVEWQWNGQPAENYKNTQPIMDTDGSYFVYSKLNVQKSNWEAGNTFTCSVLHEGLHNHHTEKSLSHSPGK light: not shown
